T1: GST-BEE2 (Arabidopsis thaliana, UniProt Q93VJ4 1-304)
T1 sequence: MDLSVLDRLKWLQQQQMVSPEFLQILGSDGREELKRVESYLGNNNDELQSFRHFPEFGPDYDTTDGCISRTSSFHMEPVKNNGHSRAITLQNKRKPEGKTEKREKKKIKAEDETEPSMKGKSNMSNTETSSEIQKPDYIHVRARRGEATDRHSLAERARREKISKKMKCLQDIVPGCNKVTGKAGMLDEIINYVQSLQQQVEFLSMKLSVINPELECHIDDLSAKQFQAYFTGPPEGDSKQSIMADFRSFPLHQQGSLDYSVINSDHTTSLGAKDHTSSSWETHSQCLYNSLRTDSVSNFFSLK

T2: GST-HBI1 (Arabidopsis thaliana, UniProt Q9ZPW3 1-337)
T2 sequence: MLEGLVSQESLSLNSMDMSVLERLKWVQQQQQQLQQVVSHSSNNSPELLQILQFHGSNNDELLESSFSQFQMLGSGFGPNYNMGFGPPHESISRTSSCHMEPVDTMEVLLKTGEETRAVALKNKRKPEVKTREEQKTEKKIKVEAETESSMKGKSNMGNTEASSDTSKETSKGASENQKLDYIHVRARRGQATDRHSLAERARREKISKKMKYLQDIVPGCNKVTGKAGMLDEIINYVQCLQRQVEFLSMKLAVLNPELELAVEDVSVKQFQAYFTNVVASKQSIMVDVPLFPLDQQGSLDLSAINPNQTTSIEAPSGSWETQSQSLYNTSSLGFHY

B1: GASA6 promoter Probe 1 (dsDNA)
DNA 1: CAATTTTTAATCACAAATGCTATTTTATTGGACGACC
DNA 2: GGTCGTCCAATAAAATAGCATTTGTGATTAAAAATTG
B2: GASA6 promoter Probe 2 (dsDNA)
DNA 1: GTCTCCCATGTGAGTGCACATGGAGTTATG
DNA 2: CATAACTCCATGTGCACTCACATGGGAGAC

Experiments:
GST-BEE2 = biological target: T1, GST-BEE2; test: EMSA; 1000x cold probe eliminated the shift; 10 mM Tris pH 7.5, 50 mM KCl, 5 mM MgCl2, 1 mM DTT, 2.5% glycerol, 0.5% NP-40, 50 ng poly(dI-dC), 25 fmol probe in 20 ul, room temperature, 45 min; 6% native PAGE; details: protein: recombinant; tags: GST (N-term, pGEX4T1); chain copies: 2; label: 5' biotin; blunt
GST-HBI1 = biological target: T2, GST-HBI1; test: as above; details: protein: recombinant; tags: GST (N-term, pGEX4T1); chain copies: 2; label: 5' biotin; blunt

| Binder | binding result (GST-BEE2) | binding result (GST-HBI1) |
| --- | --- | --- |
| B1 | binds | binds |
| B2 | binds | binds |

Source: publication PMC8219041, “A transcriptional hub integrating gibberellin–brassinosteroid signals to promote seed germination in Arabidopsis”
